Source: paper PMC12216489, “Deep mutational scanning identifies Cas1 and Cas2 variants that enhance type II-A CRISPR-Cas spacer acquisition” (Nature Communications, 2025)

T1: Streptococcus pyogenes Cas1 R5A (S. pyogenes, UniProt Q99ZW1 1-289, R5A)
T1 construct: Cas1 of the Streptococcus pyogenes SF370 type II-A CRISPR-Cas locus with R5A; One of the plasmids pRAH246, pRAH248 or pRAH249; which plasmid holds which variant is in Supplementary Data 2; source: E. coli Rosetta 2(DE3) BL21, purified (Ni-NTA, SUMO protease, HiTrap Heparin, Superdex 200)
T1 sequence (looked up): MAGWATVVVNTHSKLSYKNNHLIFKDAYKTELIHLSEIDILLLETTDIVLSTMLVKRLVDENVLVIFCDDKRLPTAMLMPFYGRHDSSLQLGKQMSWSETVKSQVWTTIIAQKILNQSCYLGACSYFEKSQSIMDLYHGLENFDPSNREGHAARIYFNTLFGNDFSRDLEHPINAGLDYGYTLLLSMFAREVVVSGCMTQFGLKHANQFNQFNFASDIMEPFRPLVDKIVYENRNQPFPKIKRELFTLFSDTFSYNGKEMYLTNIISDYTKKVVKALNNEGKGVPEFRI

T2: Streptococcus pyogenes Cas1 (S. pyogenes, UniProt Q99ZW1 1-289)
T2 construct: Cas1 of the Streptococcus pyogenes SF370 type II-A CRISPR-Cas locus; One of the plasmids pRAH246, pRAH248 or pRAH249; which plasmid holds which variant is in Supplementary Data 2; Fractions with cleaved Cas1 were pooled after SUMO protease digestion; also called wild-type Cas1; source: E. coli Rosetta 2(DE3) BL21, purified (Ni-NTA, SUMO protease, HiTrap Heparin, Superdex 200)
T2 sequence (looked up): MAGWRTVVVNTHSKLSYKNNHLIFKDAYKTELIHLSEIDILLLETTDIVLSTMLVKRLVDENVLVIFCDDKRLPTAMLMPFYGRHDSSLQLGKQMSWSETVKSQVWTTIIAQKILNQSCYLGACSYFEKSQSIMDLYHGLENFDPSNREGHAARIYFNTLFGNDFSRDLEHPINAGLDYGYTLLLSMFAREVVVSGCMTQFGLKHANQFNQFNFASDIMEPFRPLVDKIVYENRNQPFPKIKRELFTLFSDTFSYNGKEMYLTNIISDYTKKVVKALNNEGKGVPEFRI

T3: Streptococcus pyogenes Cas1 R5K (S. pyogenes, UniProt Q99ZW1 1-289, R5K)
T3 construct: Cas1 of the Streptococcus pyogenes SF370 type II-A CRISPR-Cas locus with R5K; One of the plasmids pRAH246, pRAH248 or pRAH249; which plasmid holds which variant is in Supplementary Data 2; source: E. coli Rosetta 2(DE3) BL21, purified (Ni-NTA, SUMO protease, HiTrap Heparin, Superdex 200)
T3 sequence (looked up): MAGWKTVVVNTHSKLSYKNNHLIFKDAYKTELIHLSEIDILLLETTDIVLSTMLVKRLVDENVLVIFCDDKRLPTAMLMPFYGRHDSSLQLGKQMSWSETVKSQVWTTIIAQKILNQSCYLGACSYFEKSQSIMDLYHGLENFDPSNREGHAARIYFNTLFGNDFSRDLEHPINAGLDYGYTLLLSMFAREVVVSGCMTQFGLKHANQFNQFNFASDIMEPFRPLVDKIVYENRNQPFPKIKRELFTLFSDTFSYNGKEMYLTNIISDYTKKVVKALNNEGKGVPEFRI


Tests used:
Experiment in all cases: SEC; analytical SEC on Superdex 200 Increase 10/300 GL in SEC buffer (20 mM HEPES pH 7.5, 500 mM NaCl, 5% v/v glycerol, 5 mM DTT) at 4 °C; Cas1 variants (15-100 μM, 2 equiv.) mixed with Cas2 variants (1 equiv.), incubated at 4 °C for 1 h before injection; fractions analysed by SDS-PAGE
Details in all cases: both partners purified
[1] = biological target: T1, Streptococcus pyogenes Cas1 R5A
[2] = biological target: T2, Streptococcus pyogenes Cas1
[3] = biological target: T3, Streptococcus pyogenes Cas1 R5K

Row | binding result [1] | binding result [2] | binding result [3] | Binder
1 | binds | binds | binds | Streptococcus pyogenes Cas2 (natural protein, S. pyogenes, UniProt Q99ZW0 1-113, looked up, Cas2 of the Streptococcus pyogenes SF370 type II-A CRISPR-Cas locus; One of the plasmids pRAH247, pRAH272 or pRAH273; which plasmid holds which variant is in Supplementary Data 2; Same protocol as for Cas1; also called wild-type Cas2; source: E. coli Rosetta 2(DE3) BL21, purified (Ni-NTA, SUMO protease, HiTrap Heparin, Superdex 200)) MSYRYMRMILMFDMPTDTAEERKAYRKFRKFLLSEGFIMHQFSIYSKLLLNNTANNAMIGRLREHNPNKGNITLLTVTEKQFARMIYLHGERNNCIANSDERLVFLGEAFDES
2 |  | binds |  | Streptococcus pyogenes Cas2 Y5F (natural protein, S. pyogenes, UniProt Q99ZW0 1-113, looked up, Cas2 of the Streptococcus pyogenes SF370 type II-A CRISPR-Cas locus with Y5F; One of the plasmids pRAH247, pRAH272 or pRAH273; which plasmid holds which variant is in Supplementary Data 2; source: E. coli Rosetta 2(DE3) BL21, purified (Ni-NTA, SUMO protease, HiTrap Heparin, Superdex 200)) MSYRFMRMILMFDMPTDTAEERKAYRKFRKFLLSEGFIMHQFSIYSKLLLNNTANNAMIGRLREHNPNKGNITLLTVTEKQFARMIYLHGERNNCIANSDERLVFLGEAFDES
3 |  | binds |  | Streptococcus pyogenes Cas2 Y5A (natural protein, S. pyogenes, UniProt Q99ZW0 1-113, looked up, Cas2 of the Streptococcus pyogenes SF370 type II-A CRISPR-Cas locus with Y5A; One of the plasmids pRAH247, pRAH272 or pRAH273; which plasmid holds which variant is in Supplementary Data 2; source: E. coli Rosetta 2(DE3) BL21, purified (Ni-NTA, SUMO protease, HiTrap Heparin, Superdex 200)) MSYRAMRMILMFDMPTDTAEERKAYRKFRKFLLSEGFIMHQFSIYSKLLLNNTANNAMIGRLREHNPNKGNITLLTVTEKQFARMIYLHGERNNCIANSDERLVFLGEAFDES
